# Substitutions are numbered along the chain they refer to.
# T1: recombinant WT full-length Nde1, not phosphorylated (dephospho-Nde1) (mouse, UniProt Q9CZA6 1-344)
# T1 sequence (looked up): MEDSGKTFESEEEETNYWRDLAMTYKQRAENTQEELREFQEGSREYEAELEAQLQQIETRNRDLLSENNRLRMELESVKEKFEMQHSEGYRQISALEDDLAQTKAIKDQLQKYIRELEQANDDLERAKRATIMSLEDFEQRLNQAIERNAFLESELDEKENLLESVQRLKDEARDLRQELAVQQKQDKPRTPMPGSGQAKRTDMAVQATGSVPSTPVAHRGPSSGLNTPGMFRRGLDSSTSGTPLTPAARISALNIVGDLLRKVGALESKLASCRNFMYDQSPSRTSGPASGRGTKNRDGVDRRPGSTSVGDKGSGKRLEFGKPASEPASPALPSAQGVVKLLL
# B1: GFP-Nde1-3E (triple phosphomimetic Nde1) (natural protein, mouse, UniProt Q9CZA6 1-344, looked up)
# chain: T1 sequence (looked up) with T215E, T243E, T246E
# B2: GST-CENP-F-NBD (GST-tagged CENP-F fragment containing its Nde1-binding domain) (domain or fragment, human, UniProt P49454 2122-2297, looked up)
# chain: EKLRVRIEADEKKQLHIAEKLKERERENDSLKDKVENLERELQMSEENQELVILDAENSKAEVETLKTQIEEMARSLKVFELDLVTLRSEKENLTKQIQEKQGQLSELDKLLSSFKSLLEEKEQAEIQIKEESKTAVEMLQNQLKELNEAVAALCGDQEIMKATEQSLDPPIEEEH
# Legend:
# [1] = target: CENP-F (UniProt P49454); assay: anti-GFP co-immunoprecipitation; details: reference: GFP WT Nde1; sites T215,T243,T246
# [2] = target: B2; assay: pull-down
# [3] = target: T1, recombinant WT full-length Nde1, not …; assay: pull-down
molecule,measurement,setting,value
Nde1 (from UniProt Q9CZA6) GFP-Nde1-3A,binding against the reference,[1],weaker
B1,fold level pulled down against Nde1-3A,[2],2.5 fold
B2,binding result,[3],binds

# Source: paper PMC6122996 (The Journal of Cell Biology, 2018)
